Entries after “also recorded” stand apart in the source; their conditions may differ.
B1: KR: first protein KillerRed, ROS-generating protein (superoxide), expressed from pRSET-KillerRed, 31 kDa (protein)
chain: MRGSHHHHHHGMASMTGGQQMGRDLYDDDDKDPMLCCMRRTKQVEKNDEDQKISEGGPALFQSDMTFKIFIDGEVNGQKFTIVADGSSKFPHGDFNVHAVCETGKLPMSWKPICHLIQYGEPFFARYPDGISHFAQECFPEGLSIDRTVRFENDGTMTSHHTYELDDTCVVSRITVNCDGFQPDGPIMRDQLVDILPNETHMFPHGPNAVRQLAFIGFTTADGGLMMGHFDSKMTFNGSRAIEIPGPHFVTIITKQMRDTSDKRDHVCQREVAYAHSVPRITSAIGSDED
modifications: pRSET-KillerRed
notes: first protein KillerRed, ROS-generating protein (superoxide), expressed from pRSET-KillerRed, 31 kDa
B2: RLuc8.6-KR-LP: fusion protein of RLuc8.6, KillerRed and lead peptide WLEAAYQRFL, 71 kDa (protein)
chain: MRGSHHHHHHGMASMTGGQQMGRDLYDDDDKDPMASKVYDPEQRKRMITGPQWWARCKQMNVLDSFINYYDSEKHAENAVIFLHGNATSSYLWRHVVPHIEPVARCIIPDLIGMGKSGKSGNGSYRLLDHYKYLTAWFELLNLPKKIIFVGHDWGSALAFHYAYEHQDRIKAIVHMESVVDVIESWMGWPDIEEELALIKSEEGEKMVLENNFFVETLLPSKIMRKLEPEEFAAYLEPFKEKGEVRRPTLSWPREIPLVKGGKPDVVQIVRNYNAYLRASDDLPKLFIESDPGFFYNAIVEGAKKFPNTEFVKVKGLHFLQEDAPDEMGKYIKSFVERVLKNEQEFGGGMLCCMRRTKQVEKNDEDQKISEGGPALFQSDMTFKIFIDGEVNGQKFTIVADGSSKFPHGDFNVHAVCETGKLPMSWKPICHLIQYGEPFFARYPDGISHFAQECFPEGLSIDRTVRFENDGTMTSHHTYELDDTCVVSRITVNCDGFQPDGPIMRDQLVDILPNETHMFPHGPNAVRQLAFIGFTTADGGLMMGHFDSKMTFNGSRAIEIPGPHFVTIITKQMRDTSDKRDHVCQREVAYAHSVPRITSAIGSDEDGGGWLEAAYQRFL
modifications: pRSET-RLuc8.6-KillerRed-Lead peptide

How the values were obtained:
[1] = Bioluminescence assay of purified proteins with Co-h substrate (BRET); assay type: physicochemical; details: protein 1 μM, Co-h 50 μM, 1×PBS
Procedure: In addition, 100 μL of buffer (1×PBS) containing the protein purified in Example 1 (final concentration: 1 μM) was dispensed into a 96-well plate (SPL Cell Culture Plate, 96 well (SPL, Cat #30196)), and bioluminescence assay was then performed using 50 μL of buffer (1×PBS) containing a Co-h substrate solution (final concentration: 50 μM), which is a wild-type 2-deoxy derivative. Bioluminescence intensity was immediately measured at a wavelength of 300 to 800 nm using a Thermo Scientific™ Varioskan™ Flash Multimode Reader.

[2] = system: MCF-7 cells; test: Cell death according to incubation time after various Co-h concentrations (SYTOX Green/DAPI); assay type: cell-based, human; details: MCF-7, protein 10 μM
Procedure: (§1) MCF-7 cells were seeded at 5×10^5 cells/mL in a 96-well plate (SPL Cell Culture Plate, 96 well (SPL, Cat #30096)), and cultured at 37° C. for 24 hours (overnight). After the culture for 24 hours, the cells were washed with FBS & Phenol red-free media (RPMI, Well Gene., Korea, Cat #LM011-02), and 100 μL of an FBS-free medium containing the purified protein (final concentration: 10 μM) was added, followed by reaction at 37° C. for 24 hours.
After the reaction for 24 hours, the cells were washed with FBS & Phenol red-free media (RPMI), and then 100 μL of FBS & Phenol red-free media (RPMI) was added again. The reaction was performed by each concentration of the Co-h substrate solution, and then the cells were incubated at 37° C.
After incubation, 50 μL of SYTOX Green (final concentration: 261 nM) staining DNA of dead cells and DAPI 10 μL of DAPI staining DNA of live cells were added, followed by reaction for 5 minutes. Cell death was confirmed by detecting KillerRed, SYTOX Green and DAPI fluorescence according to the light irradiation time for cells using a confocal microscope.

[3] = system: MCF-7 cells; test: Cell death according to presence of serum and protein treatment time (Co-h); assay type: cell-based, human; details: MCF-7, protein 10 μM, serum-free media or serum-containing media, Co-h 150 μM
Procedure: as §1, with “medium or FBS media (RPMI),” for “medium”, “containing” for “containing the”, “μM),” for “μM)”, “over time.” for “for 24 hours.”
After the reaction, the cells were washed with FBS & Phenol red-free media (RPMI), 100 μL of FBS & Phenol red-free media (RPMI) containing a Co-h substrate solution (final concentration: 150 μM) and SYTOX Green (final concentration: 261 nM) staining DNA of dead cells was added, followed by reaction at 37° C. for 30 minutes.
After the reaction, 10 μL of DAPI staining DNA of live cells was added, followed by reaction for 5 minutes. Cell death was confirmed by observing KillerRed, SYTOX Green and DAPI fluorescence using a confocal microscope.

[4] = system: MCF-7; test: Cell death after light irradiation by cell type (SYTOX Green/DAPI); assay type: cell-based, human; details: MCF-7, protein 10 μM, light 10 mW/cm^2 for 10 minutes
Procedure: Data on each breast cancer cell line is as follows (Table 4): MCF-7: (Origin: breast, mammary gland, Species: human—person, Growth pattern: monolayer, Media: RPMI1640 with L-glutamine (300 mg/L), 25 mM HEPES and 25 mM NaHCO3, 90%; heat inactivated fetal bovine serum (FBS), 10%), purchased from Korean Cell Line Bank (KCLB).
(§2) The cells were seeded at 5×10^5 cells/mL in 96-well plates (SPL Cell Culture Plate, 96 well (SPL, Cat #30096)), and cultured at 37° C. for 24 hours (overnight). After the culture for 24 hours, the cells were washed with FBS & phenol red-free media, and 100 μL of FBS & phenol red-free media containing a purified protein (final concentration: 10 μM) was added, followed by reaction at 37° C. for 24 hours. After the reaction for 24 hours, the cells were washed with FBS & phenol red-free media, and 100 μL of FBS & phenol red-free media was added.
(§3) After irradiation with light at 10 mW/cm^2 for 10 minutes, 50 μL (final concentration: 261 nM) of SYTOX Green staining DNA of dead cells was added, followed by reaction at 37° C. for 30 minutes. 10 μL of DAPI staining DNA of live cells was added, followed by reaction for 5 minutes. Cell death was confirmed by observing KillerRed, SYTOX Green and DAPI fluorescence using a confocal microscope.

[5] = system: MDA-MB-231; test: as above; assay type: cell-based, human; details: MDA-MB-231, protein 10 μM, light 10 mW/cm^2 for 10 minutes
Procedure: MDA-MB-231: (Origin: breast, mammary gland, Species: human—person, Growth pattern: monolayer, Media: DMEM with glucose (4.5 g/L), L-glutamine and sodium pyruvate, 90%; heat inactivated fetal bovine serum (FBS), 10%), purchased from Korean Cell Line Bank (KCLB).
as §2, §3

[6] = system: MDA-MB-231 cancer cells; test: IVIS in vivo imaging and tumor size in mice with MDA-MB-231 tumors; set-up: species or system mouse; details: NOD-SCID mice, MDA-MB-231 tumor, protein injected into tumor (50 μM), Co-h 5 μg/50 μL subcutaneously
Procedure: MDA-MB-231 cancer cells (ATCC) were cultured in RPMI (Corning Inc.) containing 5% FBS (Corning Inc.) and 1% penicillin and streptomycin. Mice used in this experiment were 7-week-old NOD-SCID species, and purchased from Central Lab Animal Inc., and then the mice were raised without diet restriction for 2 weeks for acclimation at this research institute. The weight of a female mouse ranged from 17 to 23 g.
This animal experiment was conducted after approval by the Institute of Animal Care and Use Committee (IACUC) of the Asan Medical Center in compliance with the guidelines. 1×10^6 cells/50 μL of MDA-MB-231 cells diluted in RPMI and 50 μL of Matrigel (Corning Inc.) were subcutaneously injected into the adipose body of a NOD-SCID mouse. On day 9 after cell injection, a protein containing 20 μL of Matrigel (RLuc8.6-KR-LP, final concentration: 50 μM) was injected into a tumor when the tumor size of the mouse was approximately 40 mm^2. After respiratory anesthesia of the mouse, fluorescence emitted from the protein was imaged using an IVIS spectrum (Xenogen Inc.). For BL-PDT, Co-h (5 μg/50 μL, Nanolight Technology.) was diluted in 1×PBS (Corning) and then subcutaneously injected. The light emission from Co-h was imaged after the IVIS spectrum was set to 5 seconds.

Molecule	emission in bioluminescence assay (BRET) [1]	cell incubation time after which the number of cells stained with SYTOX Green increased ([2]; 25 μM or 50 μM substrate solution for 5 minutes)	cell incubation time at which cells stained with SYTOX Green were observed ([2]; 150 μM substrate solution for 5 minutes)	protein treatment time from which the number of cells stained with SYTOX Green increased [3]	cell death after light irradiation [4]	cell death after light irradiation [5]	tumor size [6]
B1	610 nm	–	–	–	–	–	–
B2	–	≥ 30 min	approximately 10 minutes	~4 h	killing the three types of cancer cell lines	killing the three types of cancer cell lines	the smallest; also recorded: tumor growth is inhibited
